# Test results published in US20190160152A1 (OPKO BIOLOGICS LTD., priority 2016, published 2019).
# Entries after “also recorded” stand apart in the source; their conditions may differ. Read-outs that look alike come from different tables or passages of the source.
# How the values were obtained:
# [1] = ob/ob mouse model Study 1: PEG30-S-MAL-FMS-OXM variants at 2000 nmol/kg; type: in vivo, male ob/ob mice; conditions: 2000 nmol/kg sc; for final reduction of body weight (on day 18) compared to vehicle (PEG-SH) group: days 1, 5, 9, 13 and 16
# Procedure: Terminal samples on day 19 were analyzed for cholesterol.
# [2] = IP glucose tolerance test (IPGTT model); type: in vivo, C57BL/6 male mice; conditions: for AUC (0-180) / AUC (−60-180): blood glucose, 100 nmol/kg peptide content IP 15 min prior to glucose 1.5 gr/kg IP; for % AUC from control, AUC (0-180) / % AUC from control, AUC (−60-180): control PEG-SH, 100 nmol/kg peptide content IP
# [3] = Hydrolysis rate of MOD-6031 in phosphate buffer at different pH; type: physicochemical
# [4] = Ex-vivo hydrolysis rate of MOD-6031 in human plasma; type: in vitro ADME
# Procedure: (§1) After evaporation to dryness and reconstitution, the extracts were analysed by LC-MS/MS. […] Incubation at temperatures of 35° C., 37° C. and 41° C. was examined in rat plasma. […] For human plasma, both pooled and individual samples were measured using plasma derived from male and female subjects. […] The hydrolysis was stopped at the designated time point by freezing the sample at −70° C. […] For each condition, three independent samples were prepared. Samples were incubated at a given temperature of either 35° C., 37° C. or 41° C. All samples were stored at −70° C. prior to analysis. […] Temperature, wherein hydrolysis was tested at temperatures of 35° C., 37° C., and 41° C.; and • c. Plasma source, wherein hydrolysis was tested in plasma samples obtained from rat, cynomolgus monkeys and human. For human plasma, both pooled and individual samples were used, and hydrolysis rates were measured separately for plasma from males and females. […] At designated time points, samples were taken for LC-MS/MS analysis.
# [5] = ob/ob mouse model Study 3: MOD-6031 vs PEG30-Fmoc-OXM vs PEG30-EMCS-OXM; type: in vivo, male ob/ob mice; conditions: for terminal plasma lipidic profiles and fructosamine (in words) / glucose profile, Day 30 OGTT (in words) / glucose tolerance, day 2 OGTT (in words): 6000 nmol/kg; for terminal plasma lipidic profiles and fructosamine (in words): day 33; for glucose profile, Day 30 OGTT (in words) / glucose tolerance, day 2 OGTT (in words): glucose 2 g/kg po
# Procedure: Forty-two male ob/ob mice (7 weeks of age, Charles River, Italy) were acclimatized to the facility (10 days) followed by handling protocol whereby animals were handled as if to be dosed but were actually not weighed or dosed. Subsequently, animals underwent baseline period for 1 week in which each animal have been dosed twice by the subcutaneous route with PEG30-SH in volume of 20 ml/kg. Body weight, food and water intake were recorded daily, and samples were taken for non-fasting and fasting glucose measurements and non-fasting and fasting insulin measurements. Animals were subsequently allocated into three treatment, control and pair-fed groups (group A, N=10, groups B-E, N=8) based on plasma glucose, body weight and daily food and water intake. […] It was given the daily food ration equal to that eaten by its paired counterpart in group B the previous day. As such, animals in Group E will be one day out of phase with Group B in all study procedures and measurements. During the study, animals were dosed every four days (days: 1, 5, 9, 13, 17, 21, 25 and 29) as describes in table 3. […] Several procedures and sampling have been performed: non-fasting glucose on days 1, 6, 14, 22 and 29, fasting glucose on days 10, 18 and 26. On days 2 and 30 fasting glucose samples have been taken as part of an OGTT procedure, in which insulin was measured in parallel to glucose. Terminal samples on day 33 were analyzed for cholesterol, triglycerides and fructosamine.
# [6] = ob/ob mouse model Study 2: chronic MOD-6031, OXM, liraglutide pharmacology; type: in vivo, male ob/ob mice
# Procedure: Body weight, food and water intake were recorded daily. […] Body weight, food and water intake were measured daily.
# [7] = Viscosity analysis (Brookfield rheometer); type: physicochemical
# Procedure: Viscosity was measured with a Brookfield rheometer (DV-III Ultra). For each formulation, viscosity was obtained from the average of five shear rate (Sec^−1) readouts (15.0, 30.0, 45.0, 60.0 and 75.0) at a controlled temperature of 25° C. Processing of the data was done using Rheocalc® software (Brookfield).
# Conditions included concentration, buffer type, pH, and NaCl. Buffers were formed by interaction of base part of the buffer and the trifluoro acetic acid (TFA) that co-eluted with the […] (DS). […]
# [8] = mouse, in vivo, sc
# [9] = target: T1, dipeptidyl peptidase IV (DPPIV) (Homo sapiens, UniProt P27487); experiment: DPPIV digestion assay by RP-HPLC; conditions: pH = 6
# [10] = Ex-vivo hydrolysis rate of MOD-6031 in rat plasma; type: in vitro ADME
# Procedure: as §1
# [11] = Ex-vivo hydrolysis rate of MOD-6031 in cynomolgus monkey plasma; type: in vitro ADME
# Procedure: as §1
# [12] = target: T1, dipeptidyl peptidase IV (DPPIV)
# [13] = Syringability analysis (Instron, glide force); type: physicochemical; conditions: 25 Ga Needle; 9 in/min (16 sec)
# Procedure: Syringeability was tested using an Instron instrument, model 5942. […] […] For each needle size, two speed rates were measured: 4.8 in/min and 9 in/min, which correspond to injection speeds of 1 ml per 30 sec and 16 sec, respectively.
# In one case, acceptance criteria for syringability was set at <10 N (glide force). The results of syringability for two different formulations of an acetate based buffer and using three different gauge needles is presented in Table 29 below.
# [14] = Human female (pool) plasma 37° C.
# [15] = Human male (pool) plasma 37° C.
# [16] = 6000 nmol/kg sc every four days
# [17] = Monkey (lot# CYN128421) plasma 37° C.
# [18] = Monkey (lot# CYN128423) plasma 37° C.
# T1 sequence (P27487 whole entry, species assumed): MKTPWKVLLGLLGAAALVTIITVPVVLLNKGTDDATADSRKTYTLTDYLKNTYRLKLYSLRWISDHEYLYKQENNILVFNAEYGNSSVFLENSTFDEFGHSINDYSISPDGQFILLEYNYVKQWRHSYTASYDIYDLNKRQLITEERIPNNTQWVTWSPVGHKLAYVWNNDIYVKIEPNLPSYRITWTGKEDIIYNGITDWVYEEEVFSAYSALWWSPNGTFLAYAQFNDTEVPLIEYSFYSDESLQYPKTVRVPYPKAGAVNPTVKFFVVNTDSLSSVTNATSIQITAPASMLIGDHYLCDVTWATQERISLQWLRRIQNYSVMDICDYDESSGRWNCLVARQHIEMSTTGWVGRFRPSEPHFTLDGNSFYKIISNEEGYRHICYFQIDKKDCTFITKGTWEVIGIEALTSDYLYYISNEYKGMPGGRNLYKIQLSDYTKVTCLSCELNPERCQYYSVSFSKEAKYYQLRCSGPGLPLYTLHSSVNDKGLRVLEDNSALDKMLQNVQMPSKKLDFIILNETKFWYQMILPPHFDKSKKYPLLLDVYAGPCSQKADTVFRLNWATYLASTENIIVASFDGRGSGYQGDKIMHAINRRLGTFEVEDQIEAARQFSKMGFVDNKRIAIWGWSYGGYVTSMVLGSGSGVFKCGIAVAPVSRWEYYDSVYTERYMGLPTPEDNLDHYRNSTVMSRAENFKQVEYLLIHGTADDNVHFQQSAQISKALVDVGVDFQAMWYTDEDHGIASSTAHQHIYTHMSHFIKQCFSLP
substance,measurement,setting,value
"MOD-6030: heterogeneous mixture of PEG-S-MAL-FMS-OXM conjugate composed of three variants (N-terminal, Lys12 and Lys30) (HSQGTFTSDYSKYLDSRRAQDFVQWLMNTKRNRNNIA; Oxyntomodulin PEG30-S-MAL-FMS, mixed N-term/Lys12/Lys30; UniProt P01275 53-89, looked up)",final reduction of body weight (on day 18) compared to vehicle (PEG-SH) group,[1],4.7%
same,AUC (0-180),[2],13541
same,AUC (−60-180),[2],18200
same,"% AUC from control, AUC (0-180)",[2],60.1%
same,"% AUC from control, AUC (−60-180)",[2],67.8%
MOD-6031,Cl/F_obs,[3]; Phosphate pH = 6.8,0.061 (mg)/(μg/ml)/h
same,MRT0-∞,[3]; Phosphate pH = 6.8,47.4 h
same,Cl/F_obs,[3]; Phosphate pH = 7.4,0.133 (mg)/(μg/ml)/h
same,MRT0-∞,[3]; Phosphate pH = 7.4,20.3 h
same,Cl/F_obs,[3]; Phosphate pH = 7.8,0.227 (mg)/(μg/ml)/h
same,MRT0-∞,[3]; Phosphate pH = 7.8,10.7 h
same,Cl/F_obs,[4]; [14],0.102 (mg)/(μg/ml)/h
same,MRT0-∞,[4]; [14],9 h
same,Cl/F_obs,[4]; Human female A plasma 37° C.,0.125 (mg)/(μg/ml)/h
same,MRT0-∞,[4]; Human female A plasma 37° C.,8 h
same,Cl/F_obs,[4]; Human female B plasma 37° C.,0.136 (mg)/(μg/ml)/h
same,MRT0-∞,[4]; Human female B plasma 37° C.,9 h
same,Cl/F_obs,[4]; Human female C plasma 37° C.,0.143 (mg)/(μg/ml)/h
same,MRT0-∞,[4]; Human female C plasma 37° C.,7 h
same,Cl/F_obs,[4]; [15],0.064 (mg)/(μg/ml)/h
same,MRT0-∞,[4]; [15],14 h
same,Cl/F_obs,[4]; Human male A plasma 37° C.,0.133 (mg)/(μg/ml)/h
same,MRT0-∞,[4]; Human male A plasma 37° C.,8 h
same,Cl/F_obs,[4]; Human male B plasma 37° C.,0.148 (mg)/(μg/ml)/h
same,MRT0-∞,[4]; Human male B plasma 37° C.,7 h
same,Cl/F_obs,[4]; Human male C plasma 37° C.,0.146 (mg)/(μg/ml)/h
same,MRT0-∞,[4]; Human male C plasma 37° C.,7 h
same,hydrolysis rate in different plasma types (in words),"[4]; rat, cynomolgus monkey and human plasma, 37° C.",comparable hydrolysis rate in most of the plasma samples; also recorded: very similar
same,"ability to reduce weight, inhibit food intake and improve glycemic control (in words)",[1],superior efficacies
same,non-fasting glucose (in words),[1],improvement of non-fasting glucose
same,final reduction of body weight (on day 18) compared to vehicle (PEG-SH) group,[1],4.9%
same,Final reduction changes in body weight (on day 33) compared to control (PEG-SH),[5]; [16],25.4%
same,fasting glucose (in words),[5]; [16],significant improvement
same,non-fasting glucose (in words),[5]; [16],significant improvement
same,terminal plasma lipidic profiles and fructosamine (in words),[5],significant reduction
same,"glucose profile, Day 30 OGTT (in words)",[5],significant improved glucose profile
same,"glucose tolerance, day 2 OGTT (in words)",[5],significantly improved glucose tolerance
same,body weight reduction at the conclusion of the study (day 33),[6]; 1000 nmol/kg sc twice a week,5.2%
same,body weight reduction at the conclusion of the study (day 33),[6]; 3000 nmol/kg sc twice a week,12.3%
same,body weight and food consumption (in words),[6]; 3000 nmoles/kg twice a week,significantly reduced
same,body weight reduction at the conclusion of the study (day 33),[6]; 6000 nmol/kg sc twice a week,28.3%
same,food intake and body weight (in words),[6]; 6000 nmol/kg twice a week,significantly reduced
same,"glucose tolerance, OGTT days 2 and 30 (in words)","[6]; 1000, 3000 and 6000 nmoles/kg, glucose 2 g/kg po",significantly and dose-dependently improved
same,terminal cholesterol (in words),[6]; day 33,dose-dependently reduced
same,terminal glucose (in words),"[6]; study termination, day 33",dose-dependently reduced
same,terminal plasma insulin (in words),"[6]; study termination, day 33",markedly reduced
same,glucose tolerance (in words),"[2]; IPGTT, compared to vehicle PEG-SH",slightly less potent
same,AUC (0-180),[2],15781
same,AUC (−60-180),[2],19891
same,"% AUC from control, AUC (0-180)",[2],70.1%
same,"% AUC from control, AUC (−60-180)",[2],74.1%
same,Viscosity,"[7]; 100 mM Acetate, 100 mM Sucrose, pH 4.7, 66 mg/ml",20.41 cp
same,Viscosity,"[7]; 100 mM Acetate, 100 mM Sucrose, pH 4.7, 72 mg/ml",23.91 cp
same,Viscosity,"[7]; 100 mM Acetate, 100 mM Sucrose, pH 4.7, 77 mg/ml",26.08 cp
same,Viscosity,"[7]; 100 mM Acetate, 100 mM Sucrose, pH 4.7, 80 mg/ml",30.02 cp
same,Viscosity,"[7]; 100 mM Acetate, 100 mM Sucrose, pH 4.7, concentration 60 mg/ml (A280)",17.48 cp
same,Viscosity,"[7]; T = 0, 50 mM Acetate pH 4.7, 60 mg/mL",19.7 cP
same,Viscosity,"[7]; T = 0, 50 mM Acetate pH 4.7, 70 mg/mL",29.2 cP
same,Viscosity,"[7]; T = 0, 50 mM Acetate pH 4.7, 80 mg/mL",43.6 cP
same,Viscosity,"[7]; T = 0, 50 mM Acetate pH 4.7, 100 mg/mL",79.2 cP
same,Viscosity,"[7]; T = 0, 50 mM Acetate pH 4.7, theoretical concentration 50 mg/mL",12.9 cP
same,Viscosity,"[7]; T = 0, 100 mM Acetate pH 4.7, 50 mg/mL",12.9 cP
same,Viscosity,"[7]; T = 0, 100 mM Acetate pH 4.7, 60 mg/mL",20.8 cP
same,Viscosity,"[7]; T = 0, 100 mM Acetate pH 4.7, 70 mg/mL",32.9 cP
same,Viscosity,"[7]; T = 0, 100 mM Acetate pH 4.7, 80 mg/mL",48.7 cP
same,Viscosity,"[7]; T = 0, 100 mM Acetate pH 4.7, 100 mg/mL",87.4 cP
same,Viscosity,"[7]; T = 24 hrs, 50 mM Acetate pH 4.7, 50 mg/mL",12.2 cP
same,Viscosity,"[7]; T = 24 hrs, 50 mM Acetate pH 4.7, 60 mg/mL",19.4 cP
same,Viscosity,"[7]; T = 24 hrs, 50 mM Acetate pH 4.7, 70 mg/mL",28.3 cP
same,Viscosity,"[7]; T = 24 hrs, 100 mM Acetate pH 4.7, 50 mg/mL",12.8 cP
same,Viscosity,"[7]; T = 24 hrs, 100 mM Acetate pH 4.7, 60 mg/mL",20.4 cP
same,Viscosity,"[7]; T = 24 hrs, 100 mM Acetate pH 4.7, 70 mg/mL",32.5 cP
same,Plasma concentration 24 hours following last injection of repeat dosing regimen (Day 33),[8]; 1000 nmol/kg,67.51 µg/mL
same,Plasma concentration 24 hours following single dose (Day 2),[8]; 1000 nmol/kg,51.57 µg/mL
same,Plasma concentration 24 hours following single dose (Day 2),[8]; 3000 nmol/kg,183.33 µg/mL
same,Plasma concentration 24 hours following last injection of repeat dosing regimen (Day 33),[8]; 6000 nmol/kg,493.60 µg/mL
same,degradation by DPPIV (in words),[9],no degradation of OXM was observed
same,Cl/F_obs,"[10]; Table 10, Rat plasma 35° C.",0.120 (mg)/(μg/ml)/h
same,MRT0-∞,"[10]; Table 10, Rat plasma 35° C.",14.7 h
same,Cl/F_obs,"[10]; Table 10, Rat plasma 37° C.",0.129 (mg)/(μg/ml)/h
same,MRT0-∞,"[10]; Table 10, Rat plasma 37° C.",14.7 h
same,Cl/F_obs,"[10]; Table 10, Rat plasma 41° C.",0.179 (mg)/(μg/ml)/h
same,MRT0-∞,"[10]; Table 10, Rat plasma 41° C.",9.6 h
same,Cl/F_obs,"[10]; Table 11, Rat plasma 37° C.",0.056 (mg)/(μg/ml)/h
same,MRT0-∞,"[10]; Table 11, Rat plasma 37° C.",13 h
same,"hydrolysis rate, effect of temperature (in words)","[10]; rat plasma, 41° C. compared with 35° C. or 37° C.",incubation at 41 °C resulted in a higher hydrolysis rate
same,Cl/F_obs,[11]; [17],0.172 (mg)/(μg/ml)/h
same,MRT0-∞,[11]; [17],5 h
same,Cl/F_obs,[11]; [18],0.043 (mg)/(μg/ml)/h
same,MRT0-∞,[11]; [18],15 h
PEG30-EMCS-OXM: non-reversible form where N-(epsilon-Maleimidocaproyloxy)succinimide (EMCS) replaces Fmoc as linker,Final reduction changes in body weight (on day 33) compared to control (PEG-SH),[5]; [16],2.4%
same,degradation by DPPIV (in words),[12],no degradation of the conjugates was observed
"PEG30-Fmoc-OXM (HSQGTFTSDYSKYLDSRRAQDFVQWLMNTKRNRNNIA; Oxyntomodulin PEG30 via Fmoc linker; UniProt P01275 53-89, looked up)",Final reduction changes in body weight (on day 33) compared to control (PEG-SH),[5]; [16],5.1%
same,fasting glucose (in words),[5]; [16],significant improvement
same,reduction change in body weight compared to its pair-fed group,"[5]; 6000 nmol/kg sc every four days, insignificant",2.6%
same,terminal plasma lipidic profiles and fructosamine (in words),[5],significant reduction
same,"glucose profile, Day 30 OGTT (in words)",[5],significant improved glucose profile
same,"glucose tolerance, day 2 OGTT (in words)",[5],significantly improved glucose tolerance
certolizumab pegol [Cimzia],Break Loose Force,[13],6.28 N
same,Glide Force,[13],27.94 N
